# Assay results published in patent US20180030119A1.
# Assays:
# [1] = molecular target: F protein of RSV reference strain RSV-A Long (ATCC VR-26), on virus (RSV-A Long (ATCC VR-26)) (UniProt P12568); test: cell-based or functional assay
# [2] = molecular target: F protein of RSV reference strain RSV-B (ATCC VR 1580), on virus (RSV-B (ATCC VR 1580)) (UniProt P13843); test: cell-based or functional assay
# [3] = molecular target: F protein on intact RSV particles (Example 11, strain not stated) (RSV, strain not stated); test: competition ELISA: RSV particles pre-incubated with inhibiting mAb at 20 ug/mL, then added to plates coated with AR201 (competitor)
# [4] = molecular target: F protein on intact RSV particles (Example 11, strain not stated) (RSV, strain not stated); test: competition ELISA: RSV particles pre-incubated with inhibiting mAb at 20 ug/mL, then added to plates coated with palivizumab (competitor, self)
# [5] = molecular target: F protein on intact RSV particles (Example 11, strain not stated) (RSV, strain not stated); test: competition ELISA: RSV particles pre-incubated with control IgG at 20 ug/mL, plates coated with AR201; this is the reference set to 100 %
# [6] = molecular target: F protein on intact RSV particles (Example 11, strain not stated) (RSV, strain not stated); test: competition ELISA: RSV particles pre-incubated with control IgG at 20 ug/mL, plates coated with palivizumab; this is the reference set to 100 %
# F protein of RSV reference strain RSV-B (ATCC VR 1580), on virus (RSV-B (ATCC VR 1580)), sequence (P13843 26-574): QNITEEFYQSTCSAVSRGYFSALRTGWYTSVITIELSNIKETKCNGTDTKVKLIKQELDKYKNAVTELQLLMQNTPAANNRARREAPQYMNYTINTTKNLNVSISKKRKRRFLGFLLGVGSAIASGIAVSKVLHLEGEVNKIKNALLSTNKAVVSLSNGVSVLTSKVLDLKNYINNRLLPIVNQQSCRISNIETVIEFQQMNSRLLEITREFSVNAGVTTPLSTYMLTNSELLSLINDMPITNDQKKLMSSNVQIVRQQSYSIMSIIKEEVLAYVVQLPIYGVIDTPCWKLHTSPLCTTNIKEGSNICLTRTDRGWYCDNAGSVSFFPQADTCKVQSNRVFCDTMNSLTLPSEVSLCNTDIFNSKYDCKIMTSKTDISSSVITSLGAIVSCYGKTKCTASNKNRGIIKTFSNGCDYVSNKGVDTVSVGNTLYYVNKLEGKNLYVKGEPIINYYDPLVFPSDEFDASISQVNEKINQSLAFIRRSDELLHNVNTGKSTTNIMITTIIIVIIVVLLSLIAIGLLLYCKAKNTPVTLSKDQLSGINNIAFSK
# F protein of RSV reference strain RSV-A Long (ATCC VR-26), on virus (RSV-A Long (ATCC VR-26)), sequence (P12568 26-574): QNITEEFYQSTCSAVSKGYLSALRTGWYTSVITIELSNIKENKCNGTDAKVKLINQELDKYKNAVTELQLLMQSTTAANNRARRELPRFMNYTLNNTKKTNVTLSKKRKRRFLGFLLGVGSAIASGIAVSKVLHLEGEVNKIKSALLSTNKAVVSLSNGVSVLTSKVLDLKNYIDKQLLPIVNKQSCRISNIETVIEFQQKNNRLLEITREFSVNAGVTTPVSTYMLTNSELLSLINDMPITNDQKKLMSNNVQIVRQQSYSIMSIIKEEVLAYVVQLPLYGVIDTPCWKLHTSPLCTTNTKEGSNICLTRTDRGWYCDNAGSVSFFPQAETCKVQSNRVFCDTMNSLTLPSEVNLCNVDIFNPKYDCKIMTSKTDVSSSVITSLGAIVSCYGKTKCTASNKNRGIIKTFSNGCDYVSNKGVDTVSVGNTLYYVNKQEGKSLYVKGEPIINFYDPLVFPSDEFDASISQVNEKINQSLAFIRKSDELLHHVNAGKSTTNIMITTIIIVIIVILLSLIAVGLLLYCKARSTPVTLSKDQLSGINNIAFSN
substance,measurement,setting,value
palivizumab (antibody),"Estimated half-maximal effective antibody concentration (ng/mL), plaque neutralisation on Vero cells",[1],100 ng/mL
same,"Estimated half-maximal effective antibody concentration (ng/mL), plaque neutralisation on Vero cells",[2],200 ng/mL
same,"binding of RSV to the coated mAb, % of binding with control IgG",[3],29.2%
same,"binding of RSV to the coated mAb, % of binding with control IgG",[4],35.3%
unrelated fully human monoclonal IgG1 antibody (control),"Estimated half-maximal effective antibody concentration (ng/mL), plaque neutralisation on Vero cells",[1],> 1000 ng/mL
same,"Estimated half-maximal effective antibody concentration (ng/mL), plaque neutralisation on Vero cells",[2],> 1000 ng/mL
same,"binding of RSV to the coated mAb, % of binding with control IgG",[5],100%
same,"binding of RSV to the coated mAb, % of binding with control IgG",[6],100%
